Reference: patent US20140314744A1 (NEOTOPE BIOSCIENCES, published 2014)

B1: clone 17 monoclonal antibody (rat anti-MCAM) (antibody, V domains shown)
VH: EVQLVESGGGLVQPGRSLKLSCAASGFTFSNYYMAWVRQAPTKGLEWVASISFEGNRNHYGDSVKGRITISRDNAKSTLYLQMTSLRPEDTATYYCARHRGYSTNFYHDVLDAWGQGALVTVSS
VL: DVQMTQSPSYLATSPGESVSISCKASKNIDTYLAWYQEKPGKTNKLLIYSGSTLQSGTPSRFSGSGSGTDFTLTIRNLESEDFAVYYCQQHNEYPLTFGSGTKLEIKR
notes: Rat monoclonal from a hybridoma (Lou/M rats immunized with murine MCAM-Fc); also called anti-MCAM clone 17
B2: Recombinant human Fc-tagged MCAM IgG1-2A (Fc fusion)
chain: PRVAGVPGEAEQPAPELVEVEVGSTALLKCGLSQSQGNLSHVDWFSVHKEKRTLIFRVRQGQGQSEPGEYEQRLSLQDRGATLALTQVTPQDERIFLCQGKRPRSQEYRIQLRVYKAPEEPNIQVNPLGIPVNSKEPEEVATCVGRNGYPIPQVIWYKNGRPLKEEKNRVHIQSSQTVESSGLYTLQSILKAQLVKEDKDAQFYCELNYRLPSGNHMKESREVT
notes: also called human MCAM IgG1-2A; MCAM Fc domains 1 and 2; not shown: human Fc tag

Columns and labels:
[1] = target: T1, Murine MCAM domain 1 (Ig1) with human IgG Fc tag (mouse, UniProt Q8R2Y2 24-131, limits assumed); test: ForteBio Octet Red, domains on anti-human IgG Fc biosensors
T1 construct: domain: domain 1 (Ig1); also called MCAM Fc domain 1; not shown: human IgG Fc tag
T1 sequence (looked up): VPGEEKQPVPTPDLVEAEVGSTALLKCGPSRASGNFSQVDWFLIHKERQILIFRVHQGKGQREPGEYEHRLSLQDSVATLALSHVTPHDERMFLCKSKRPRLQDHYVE
Description: (§1) The following protocol was used: ForteBio Domain Mapping Protocol. ForteBio anti-human IgG Fc biosensors were used to immobilize various mouse MCAMhFc domains including full length mouse MCAMhFc protein on to biosensor surface. These sensors were dipped into either clone 15 or 17 MCAM specific antibody for detection of binding to these domains or full length protein. After loading these samples into a black 96 well plate, the Octet Red was programmed as follows: 60 seconds for baseline #1; 180 seconds for loading various domains; 60 seconds for baseline #2; 180 seconds for association of antibody to domain; and 240 seconds for dissociation of antibody from domain.

[2] = target: T2, Murine MCAM domain 1 and 2 (Ig1-2A) with human IgG Fc tag (mouse, UniProt Q8R2Y2 24-244, limits assumed); test: as above
T2 construct: domain: domain 1 and 2 (Ig1-2A); also called MCAM Fc domains 1 and 2; not shown: human IgG Fc tag
T2 sequence (looked up): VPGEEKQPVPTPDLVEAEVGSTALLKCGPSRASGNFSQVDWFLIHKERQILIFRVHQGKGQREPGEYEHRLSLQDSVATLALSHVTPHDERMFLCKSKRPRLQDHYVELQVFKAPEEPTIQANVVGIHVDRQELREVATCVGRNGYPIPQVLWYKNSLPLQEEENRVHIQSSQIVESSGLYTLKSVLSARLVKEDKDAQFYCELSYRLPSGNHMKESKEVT
Description: as §1

[3] = target: T3, murine MCAM-Fc (extracellular domain of murine MCAM fused to human IgG) (mouse, UniProt Q8R2Y2 24-563); test: ForteBio Octet Red, anti-human IgG Fc biosensor loaded with mouse MCAMhFc (5 ug/ml), dipped into clone 17 (5 ug/ml) or SP2 media
T3 construct: extracellular domain; Produced in CHO cells; also called mouse MCAM-Fc protein; full length mouse MCAMhFc protein; not shown: human IgG (Fc) part
T3 sequence (looked up): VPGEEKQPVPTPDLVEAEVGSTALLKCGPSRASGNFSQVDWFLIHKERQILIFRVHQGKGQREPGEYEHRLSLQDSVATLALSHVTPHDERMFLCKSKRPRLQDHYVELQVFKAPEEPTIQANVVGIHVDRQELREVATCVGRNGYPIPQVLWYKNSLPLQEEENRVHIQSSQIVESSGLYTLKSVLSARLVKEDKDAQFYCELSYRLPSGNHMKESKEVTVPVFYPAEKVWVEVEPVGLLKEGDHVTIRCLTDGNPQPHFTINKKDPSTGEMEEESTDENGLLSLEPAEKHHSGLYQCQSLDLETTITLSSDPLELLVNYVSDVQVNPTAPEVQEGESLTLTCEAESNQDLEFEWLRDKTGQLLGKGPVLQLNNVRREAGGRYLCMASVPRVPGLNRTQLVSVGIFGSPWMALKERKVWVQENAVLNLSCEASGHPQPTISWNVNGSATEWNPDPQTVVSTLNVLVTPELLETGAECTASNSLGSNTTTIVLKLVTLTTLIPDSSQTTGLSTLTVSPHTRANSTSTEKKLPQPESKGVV
Description: as §1
(§2) For FIG. 10A-B, clones 15 and 17 were tested against the following protein samples (all have human IgG Fc tag): […]

[4] = target: T4, mouse MCAM (full length, on transfected CHO cells) (mouse, UniProt Q8R2Y2 24-648); test: flow cytometry on MCAM transfected cells mixed with CFSE-labelled untransfected cells
T4 construct: whole, on cells; also called murine MCAM; mouse MCAM transfected CHO cells
T4 sequence (looked up): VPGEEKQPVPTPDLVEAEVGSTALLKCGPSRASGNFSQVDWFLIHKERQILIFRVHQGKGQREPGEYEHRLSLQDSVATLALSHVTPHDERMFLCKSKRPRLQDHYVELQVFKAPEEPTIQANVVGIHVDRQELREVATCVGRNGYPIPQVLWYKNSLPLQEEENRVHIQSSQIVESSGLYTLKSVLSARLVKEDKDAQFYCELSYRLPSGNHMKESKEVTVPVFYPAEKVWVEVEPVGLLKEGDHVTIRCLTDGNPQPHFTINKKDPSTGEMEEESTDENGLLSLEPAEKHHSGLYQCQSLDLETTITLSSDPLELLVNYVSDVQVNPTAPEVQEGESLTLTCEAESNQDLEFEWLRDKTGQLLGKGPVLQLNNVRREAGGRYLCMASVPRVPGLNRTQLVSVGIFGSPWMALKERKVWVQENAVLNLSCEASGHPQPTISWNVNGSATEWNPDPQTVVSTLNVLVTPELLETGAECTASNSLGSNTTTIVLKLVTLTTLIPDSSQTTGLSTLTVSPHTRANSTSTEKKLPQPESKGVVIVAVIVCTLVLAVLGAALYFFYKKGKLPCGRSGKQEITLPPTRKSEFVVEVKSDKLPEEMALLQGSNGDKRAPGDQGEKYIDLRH
Procedure: (§3) MCAM-Fc was generated by fusing the extracellular domain of murine MCAM to human IgG and produced in CHO cells using standard techniques. Lou/M rats were immunized with 100 μg of MCAM-Fc protein in CFA (1:1 volume). Rats were boosted two times at two week intervals with MCAM-Fc protein in incomplete Freund's adjuvant (IFA) (1:1 volume). Hybridomas were generated from immunized rats using standard protocols and clones were selected by Clonepix. CHO cells were transfected with the full length murine MCAM gene and selected for stable expression using neomycin and standard techniques. Parental CHO cells (MCAM negative) were fluorescently labeled with carboxyfluorescein succinimidyl ester (CFSE) using standard techniques and mixed at a 1:1 ratio with unlabeled MCAM transfected CHO cells. Hybridoma supernatants were incubated with this mixture of cells for 30 minutes and binding of potential MCAM specific antibodies was detected with a fluorescently labeled anti-rat secondary antibody (Jackson Immuno) by flow cytometry.
(§4) Monoclonal antibodies against mouse MCAM were generated as described in Materials and Methods above. The specific binding between the monoclonal antibody and MCAM was confirmed by assessing the monoclonal antibody's ability to bind to cells transfected with either mouse or human MCAM. For this, untransfected cells were labeled with carboxyfluorescein succinimidyl ester (CFSE) and mixed with unlabeled MCAM transfected cells. Untransfected cells (in blue) could therefore be differentiated.

[5] = target: T5, human MCAM (on transfected cells) (human, UniProt P43121 24-646); test: as above
T5 construct: Cells transfected with human MCAM; also called CD146; MUC18
T5 chain: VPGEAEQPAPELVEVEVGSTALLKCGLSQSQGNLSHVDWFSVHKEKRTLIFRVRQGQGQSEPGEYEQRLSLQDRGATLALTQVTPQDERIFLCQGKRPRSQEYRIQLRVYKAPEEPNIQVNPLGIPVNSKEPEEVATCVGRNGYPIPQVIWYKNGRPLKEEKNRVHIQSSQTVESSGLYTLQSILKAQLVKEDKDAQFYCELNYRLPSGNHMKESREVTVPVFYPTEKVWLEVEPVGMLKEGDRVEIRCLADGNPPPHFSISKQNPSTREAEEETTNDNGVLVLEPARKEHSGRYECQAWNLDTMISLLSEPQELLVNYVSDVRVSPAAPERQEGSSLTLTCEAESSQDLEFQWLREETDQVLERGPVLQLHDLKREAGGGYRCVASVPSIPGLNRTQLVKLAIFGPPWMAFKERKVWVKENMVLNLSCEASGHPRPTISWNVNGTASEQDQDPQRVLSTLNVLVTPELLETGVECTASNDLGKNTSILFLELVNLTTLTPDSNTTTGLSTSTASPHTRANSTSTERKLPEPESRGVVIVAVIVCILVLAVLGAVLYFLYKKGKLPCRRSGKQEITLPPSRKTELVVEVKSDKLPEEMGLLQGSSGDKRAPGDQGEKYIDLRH
Procedure: as §3, §4

Ig2 domain = target: T6, Ig2 domain (mouse, UniProt Q8R2Y2); test: ForteBio Octet Red, anti-human IgG Fc biosensor loaded with the Ig2 domain hFc protein, dipped into clone 17 or SP2 media
T6 construct: immunoglobulin domain 2 alone; also called Murine MCAM domain 2 (Ig2)
T6 sequence (Fc fusion chain, looked up): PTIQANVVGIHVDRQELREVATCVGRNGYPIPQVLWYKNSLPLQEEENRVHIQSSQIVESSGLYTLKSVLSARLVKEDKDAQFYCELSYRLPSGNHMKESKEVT
Description: as §1, §2

[6] = target: T7, Recombinant human laminin-α4 (R&D systems) (human, UniProt Q16363-2 826-1816); test: SPR (Biacore T200), MCAM IgG1-2A captured by anti-Fc IgG, laminin in solution
T7 construct: also called laminin 4A chain; laminin A4 (α4) chain
T7 sequence (looked up): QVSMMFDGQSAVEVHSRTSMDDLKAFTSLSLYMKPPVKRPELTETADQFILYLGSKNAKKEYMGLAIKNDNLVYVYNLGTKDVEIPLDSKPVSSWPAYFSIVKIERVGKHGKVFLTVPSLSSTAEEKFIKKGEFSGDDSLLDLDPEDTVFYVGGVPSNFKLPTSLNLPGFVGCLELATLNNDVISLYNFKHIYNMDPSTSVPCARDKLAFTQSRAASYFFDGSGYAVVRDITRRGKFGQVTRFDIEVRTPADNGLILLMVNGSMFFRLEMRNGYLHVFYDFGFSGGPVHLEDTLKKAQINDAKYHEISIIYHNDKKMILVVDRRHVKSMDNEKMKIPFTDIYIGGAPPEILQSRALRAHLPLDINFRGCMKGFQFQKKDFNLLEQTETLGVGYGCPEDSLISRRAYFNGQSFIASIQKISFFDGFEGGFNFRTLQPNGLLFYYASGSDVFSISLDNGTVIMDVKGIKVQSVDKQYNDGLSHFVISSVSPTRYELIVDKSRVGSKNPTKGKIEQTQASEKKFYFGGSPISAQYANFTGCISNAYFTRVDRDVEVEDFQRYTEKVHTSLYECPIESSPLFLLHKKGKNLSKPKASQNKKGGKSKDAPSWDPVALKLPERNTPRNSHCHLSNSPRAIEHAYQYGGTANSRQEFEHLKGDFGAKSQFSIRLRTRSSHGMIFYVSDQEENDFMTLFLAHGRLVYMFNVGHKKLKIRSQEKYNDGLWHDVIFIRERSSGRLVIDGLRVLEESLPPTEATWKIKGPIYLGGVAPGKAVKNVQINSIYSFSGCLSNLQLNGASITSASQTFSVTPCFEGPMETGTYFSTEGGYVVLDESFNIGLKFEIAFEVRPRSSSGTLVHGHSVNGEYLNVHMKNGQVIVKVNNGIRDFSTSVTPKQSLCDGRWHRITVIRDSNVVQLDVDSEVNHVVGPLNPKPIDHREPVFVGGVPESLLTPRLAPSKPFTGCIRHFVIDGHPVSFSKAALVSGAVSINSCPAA
Procedure: The binding affinity of the human laminin-α4 to human MCAM IgG1-2A was measured by Surface Plasmon Resonance on a Biacore T200 machine. Human Fc-specific F(ab′)₂ IgG (Jackson Laboratories) was immobilized on a CM5 chip using amine coupling. The four flow cells of the CM5 chips dextran surface are activated by a 7 min injection of freshly prepared 1:1 50 mM NHS: EDC at a flow rate of 5 μl/min. 70 μl IgG solution (pH 4.5) was injected for 3 min to a density of up to 3 000 RU. The coupling is then blocked by a 7 min injection of 1M ethanolamine to deactivate residual reactive sites. Recombinant human Fc-tagged MCAM IgG1-2A in degassed and filtered HBS-P buffer containing 12 mg/ml BSA and 12 mg/ml carboxy-methylated dextran sodium salt was captured by anti-Fc IgG to a capture level 1560 RU. Recombinant human Fc-tagged MCAM IgG1-2A was centrifuged at 14 000 rpm for 5 min at 4° C. before injection for 20 min at a flow rate of 5 μl/min over the anti-Fc IgG containing surface. Flow cell 1 was left free of IgG to serve as a control surface. One flow cell was used to capture recombinant human IgG1 Fc (R&D systems) to serve as a negative control. […] Buffer injections served as negative control. Data evaluation: Data from the buffer injections and the control surface were subtracted to remove artifacts. […]

[7] = target: T8, Recombinant human laminin 511 (Biolamina) (human, UniProt O15230 36-3695; P07942 22-1786; P11047 34-1609); test: SPR (Biacore T200)
T8 construct: Trimer α5β1γ1, bought; negative control

| Binder | binding result [1] | binding result [2] | binding result [3] | binding result [4] | binding result [5] | binding result (Ig2 domain) | Kd [6] [nM] | binding result [7] |
| --- | --- | --- | --- | --- | --- | --- | --- | --- |
| B1 | binds | binds | binds | binds | binds | no binding (tested: 5 ug/ml) |  |  |
| B2 |  |  |  |  |  |  | 60 | no binding (tested: 5-175 nM) |
